Paper PMC10756753, “Redox-mediated activation of ATG3 promotes ATG8 lipidation and autophagy progression in Chlamydomonas reinhardtii” (Plant Physiology, 2023)

Assays:
[1] = biological target: Chlamydomonas reinhardtii ATG3, wild type (Chlamydomonas reinhardtii); experiment: non-reducing SDS-PAGE; purified ATG3 (about 2.5-3 ug) in 50 mM Tris-HCl pH 7.5, 25 °C, untreated or treated with DTTred, GSH, DTTox, H2O2 or Cu2+; stopped with βME-free loading buffer, 5 min at 65 °C; 12% or 15% gels, Coomassie; monomer against disulfide-linked dimer
[2] = biological target: the molecule itself; experiment: as above

Molecule: Chlamydomonas reinhardtii ATG3, wild type (enzyme)
- stoichiometry N [1]: 2

B1: Saccharomyces cerevisiae ATG3, wild type (enzyme, UniProt P40344 1-310, looked up)
chain: MIRSTLSSWREYLTPITHKSTFLTTGQITPEEFVQAGDYLCHMFPTWKWNEESSDISYRDFLPKNKQFLIIRKVPCDKRAEQCVEVEGPDVIMKGFAEDGDEDDVLEYIGSETEHVQSTPAGGTKDSSIDDIDELIQDMEIKEEDENDDTEEFNAKGGLAKDMAQERYYDLYIAYSTSYRVPKMYIVGFNSNGSPLSPEQMFEDISADYRTKTATIEKLPFYKNSVLSVSIHPCKHANVMKILLDKVRVVRQRRRKELQEEQELDGVGDWEDLQDDIDDSLRVDQYLIVFLKFITSVTPSIQHDYTMEGW
notes: ATG3 (E2-like enzyme of the ATG8 conjugation system), Saccharomyces cerevisiae; catalytic Cys234; also called ScATG3; ScATG3^WT
- stoichiometry N [2]: 2
